Test results published in patent US20040072266A1, “Method of modifying cell motility via compounds and polypeptides that interact with a Wnt pathway” (priority 2002, published 2004).

B1: Wnt1: Wnt polypeptide supplied as media pre-conditioned by 293T cells expressing Wnt1 (mouse Wnt 1 per b63) (protein, UniProt P04426 28-370, looked up)
Proto-oncogene Wnt-1: ANSSGRWWGIVNIASSTNLLTDSKSLQLVLEPSLQLLSRKQRRLIRQNPGILHSVSGGLQSAVRECKWQFRNRRWNCPTAPGPHLFGKIVNRGCRETAFIFAITSAGVTHSVARSCSEGSIESCTCDYRRRGPGGPDWHWGGCSDNIDFGRLFGREFVDSGEKGRDLRFLMNLHNNEAGRTTVFSEMRQECKCHGMSGSCTVRTCWMRLPTLRAVGDVLRDRFDGASRVLYGNRGSNRASRAELLRLEPEDPAHKPPSPHDLVYFEKSPNFCTYSGRLGTAGTAGRACNSSSPALDGCELLCCGRGHRTRTQRVTERCNCTFHWCCHVSCRNCTHTRVLHECL
modifications: conditioned medium from 293T cells
B2: Wnt5a: Wnt polypeptide supplied as media pre-conditioned by 293T cells expressing Wnt5a (mouse Wnt 5A per b63) (protein, UniProt P22725 62-380, looked up)
Protein Wnt-5a: IIGAQPLCSQLAGLSQGQKKLCHLYQDHMQYIGEGAKTGIKECQYQFRHRRWNCSTVDNTSVFGRVMQIGSRETAFTYAVSAAGVVNAMSRACREGELSTCGCSRAARPKDLPRDWLWGGCGDNIDYGYRFAKEFVDARERERIHAKGSYESARILMNLHNNEAGRRTVYNLADVACKCHGVSGSCSLKTCWLQLADFRKVGDALKEKYDSAAAMRLNSRGKLVQVNSRFNSPTTQDLVYIDPSPDYCVRNESTGSLGTQGRLCNKTSEGMDGCELMCCGRGYDQFKTVQTERCHCKFHWCCYVKCKKCTEIVDQFVCK
modifications: conditioned medium from 293T cells

System: NIH3T3 cells
Test: Wnt conditioned media treatment of NIH3T3 cells, phalloidin actin staining, protrusion/filopodia count
Assay type: cell-based, mouse
Conditions: NIH3T3 cells on fibronectin treated cover slips, 15 minutes in conditioned media, Alexa568 phalloidin staining
Experimental: FIG. 1: Wnt treatment increases the protrusive activity of NIH3T3 cells. NIH3T3 cells were plated at low density on fibronectin treated cover slips. After being allowed to re-attach for 12 hours, cells were placed into media that was pre-conditioned either by control 293T cells (A), 293T cells expressing Wnt1 (B) or 293T cells expressing Wnt5a (C and D). After 15 minutes in conditioned media, cells were fixed and stained with Alexa568 conjugated phalloidin to label the actin cyto-skeleton. Wnt treated cells contained higher numbers of actin based protrusions relative to control. These included filopodia (arrows in B and C) as well as membrane ruffles (arrows in D). E. The number of filopodia per cell was counted for NIH3T3 cells treated as described above. […] Columns represent the average number of filopodia per cell. N=50, 80, 76 cells for control, Wnt1 and Wnt5a, respectively. Error bars represent the standard error of the mean for each group shown.
We can use Wnt conditioned media as a source of Wnt polypeptides and fragments of them in testing the ability of a cell to modify its cell motility characteristics. […]
In FIG. 1, we show the […] after the Wnt treatment. […] The degree of motility can be measured through the number of filopodia, for example, or through assyas that measure the levels or increases in cytoskeletal proteins. […]

Row | Molecule | number of filopodia per cell relative to control
1 | B1 | significant increase
2 | B2 | significant increase
